Where no end group is shown, it is not given here.

From patent US6528620B1, “Sid-polyamide fusions: a potent method of regulating gene expression” (University of Utah Research Foundation, priority 1999, dated 2003) come the findings set out here.

One data set concerns the target T1, PAH2 domain of mSin3A (Mus musculus, UniProt Q60520).
T1 construct: expressed in transfected cells; host or cells: S. cerevisiae strain L40
T1 sequence (Q60520 251-404): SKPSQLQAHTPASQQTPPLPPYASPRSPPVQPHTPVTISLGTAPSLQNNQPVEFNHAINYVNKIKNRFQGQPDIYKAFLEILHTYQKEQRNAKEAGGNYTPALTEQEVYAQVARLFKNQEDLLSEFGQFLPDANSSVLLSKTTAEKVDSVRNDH
Description: Directed two-hybrid assay (LexA-SID fusions with VP16PAH2, quantitative β-galactosidase). Type of data set: cell-based. As to conditions: for affinity for PAH2 relative to wild-type SID 8-20: fold higher; for interaction with PAH2 (relative β-galactosidase activity): LexA fusion with VP16PAH2 in S. cerevisiae strain L40. The source says:
Cloning and Interaction Assays—Fusions to the LexA DNA binding domain were made either by polymerase chain reaction amplifying SID 1-57 and SID 1-27 using pSPMad1 or pSPMad1 (L12P/A16P) (Ayer et al., Cell 80:767-776 (1995)) as template or by inserting a double-stranded oligonucleotide cassette encoding the various SID constructs between the EcoRI and BamH1 sites of pBTM116. Hollenberg et al., Mol. Cell. Biol. 15:3813-3822 (1995). Each construct was verified by sequencing. The different LexA fusion constructs and VP16PAH2 (Ayer et al., Cell 80:767-776 (1995)) were introduced into the S. cerevisiae strain L40 by lithium acetate transformation. Ausubel et al. eds., Current Protocols in Molecular Biology, John Wiley & Sons, Inc., New York (1995). Quantitative β-galactosidase assays were performed from three independent colonies in triplicate from liquid cultures. Ausubel et al. eds., Current Protocols in Molecular Biology, John Wiley & Sons, Inc., New York (1995). For each measurement the standard deviation was less than 10%.
We have used a directed two-hybrid assay to measure the relative affinity of the SID and various SID mutants for PAH2. Briefly, SID molecules based on the sequence of human Mad1 were fused to the DNA binding domain of bacterial LexA, and the PAH2 domain of mSin3A was fused to the transcriptional activation domain of VP16. Following introduction into the S. cerevisiae strain L40, relative affinity was measured by quantitative analysis of the β-galactosidase activity generated from an integrated LexA-dependent LacZ reporter gene.

The nature of data set [1]: Circular dichroism (CD) spectroscopy of SID peptides in TFE. The format is physicochemical. The note with it: for ability to adopt α-helical structure in TFE: increasing TFE concentrations (1, 20, 50%); for α-helical content: 50 μM peptide, 25° C. On the procedure:
Circular Dichroism (CD) Spectroscopy—CD samples contained 50 μM of peptide, 1×phosphate-buffered saline, and the percentage of trifluoroethanol (TFE, Sigma) indicated in FIG. 4. CD spectra were collected on an Aviv 62DS spectrophotometer from 280 to 195 nm at 25° C. using a cell with a 0.1-cm pathlength. The reported spectra are the average of 15 consecutive runs. The observed ellipticity was converted to mean residue molar ellipticity [Θ] (deg cm^2 dmol^−1) using the relationship [Θ]=Θ/(Cr 1) where Θ is the observed ellipticity, 1 is the pathlength, and Cr is the mean residue molar concentration. Fractional helicities were calculated as described using values for [Θ]^0222 and [Θ]^100222, corresponding to 0% and 100% helical content at 222 nm, of −2000 and −28,400 deg cm^2 dmol^−1, respectively. Wu et al., Biochemistry 20:5766-570 (1981).
To test directly if the SID could adopt an α-helical structure, we measured the helical content of wild-type SID and mutant SID peptides using circular dichroism (CD) spectroscopy. […] Therefore, spectra for the wild-type and mutant SID peptides were measured in the solvent TFE, which is commonly used to stabilize α-helical conformation in peptides that have an inherent helical propensity. Sonnichsen et al., Biochemistry 31 :8790-8798 (1992), Jasanoff and Fersht, Biochemistry 33:2129-2135 (1994). […] At increasing TFE concentrations, the wild-type peptide adopts an α-helical structure as indicated by the strong negative peaks at 208 and 222 nm. In 20% TFE the SID is approximately 40% α-helical. This percentage increases to approximately 60% in 50% TFE.

Data set [2] addresses VP16PAH2 (amino acids 251-404 of mSin3A encoding the PAH2 domain fused to the VP16 activation domain) (UniProt Q60520). In words: directed yeast two-hybrid assay (LexA-SID with VP16PAH2, beta-galactosidase).

On to “D17A: minimal SID 8-20 with single mutation D17A, LexA fusion (NIQMLLEAAAYLE; also: LexA fusion; UniProt Q05195 8-20, looked up, variant D17A)”, for which the “affinity for PAH2 relative to wild-type SID 8-20” value with PAH2 domain of mSin3A (yeast strain L40) was “approximately 2 fold”.
The same measure, in the same setting: the value for “E14A: minimal SID 8-20 with single mutation E14A, LexA fusion (NIQMLLAAADYLE; also: LexA fusion; UniProt Q05195 8-20, looked up, variant E14A)” was “approximately 2 fold”.
For the molecule “GGGMNIQMLLEDADYLE [A15D SID, same mutation also tested as LexA-SID 8-20 fusion]”, the “interaction with PAH2 (relative β-galactosidase activity)” value is “unable to interact with PAH2” with PAH2 domain of mSin3A, “fails to interact with PAH2” with PAH2 domain of mSin3A (listed as A15E) and “severely impaired binding” with PAH2 domain of mSin3A (listed as Ala-15). Also, the “CD spectrum / helicity compared with wild-type SID” value in data set [1] (50% TFE) is recorded as “slightly less helical than the wild-type SID”. The “reduction of helicity relative to wild-type” value in data set [1] (50% TFE) is “approximately 40%”. Moreover, the results for the “ability to adopt α-helical structure in TFE” value (“ability” for short) in data set [1] and in data set [1] (listed as A15E) were “retain helical structure” and “retains helical structure”, respectively.
In data set [2], “LexA fused to SID 8-20 Q10R (from UniProt P0A7C2 1-202)” came in with a fold reduction of binding against wild-type SID 8-20 (relative beta-galactosidase activity) of 4 fold.
As for “GGGMNIQMPLEAPDYLE [L12P/A16P SID, same mutation also tested as LexA fusion in two-hybrid]”, the “interaction with PAH2 (relative β-galactosidase activity)” value was “fails to interact with PAH2” in the data set with PAH2 domain of mSin3A and “failed to interact with PAH2” in the data set with PAH2 domain of mSin3A (listed as L12P/A16P). Moreover, the “ability” value is “cannot adopt an α-helical structure” in data set [1], “remained unchanged with increasing concentrations of TFE” in data set [1] (listed as L12P/A16P) and “incapable of α-helix formation” in data set [1] (listed as double proline mutant SID peptide).
Consider “GGGMNIQMLLEAADYLE [wild-type SID peptide]”, for which the α-helical content entry in data set [1] (20% TFE) is “approximately 40%”; in data set [1] (50% TFE) it was “approximately 60%”. Besides, the secondary structure result in data set [1] (aqueous solution containing 1% TFE) is recorded as “lacks secondary structure”. Moreover, in data set [1], the “ability” value is recorded as “able to adopt an α-helical conformation”.
As for “GGGMNIQMLLEAADYDE [L19D SID, same mutation also tested as LexA-SID 8-20 fusion]”, the “interaction with PAH2 (relative β-galactosidase activity)” value with PAH2 domain of mSin3A is recorded as “unable to interact with PAH2”; with PAH2 domain of mSin3A (listed as L19D) it was “fails to interact with PAH2”; in the data set with PAH2 domain of mSin3A (listed as Leu-19) it was “severely impaired binding”. For the same molecule, the “CD spectrum / helicity compared with wild-type SID” value in data set [1] (50% TFE) is listed as “nearly identical to that collected for the wild-type SID”. Further, the “reduction of helicity relative to wild-type” value in data set [1] (50% TFE) was around 5%. In addition, the results for the “ability” value in data set [1] and in data set [1] (listed as L19D) were “retain helical structure” and “retains helical structure”, respectively.
As to “QLOR: minimal thirteen amino acid SID (8-20) with mutation at Gln-10, LexA fusion (NIRMLLEAADYLE; also: LexA fusion; UniProt Q05195 8-20, looked up, variant Q10R)”, the “reduction of binding to PAH2 relative to wild-type SID 8-20” value in the data set with PAH2 domain of mSin3A (yeast strain L40, fold reduced) stood at 4 fold.
For “Q10A/E14A/D17A: minimal SID 8-20 containing all three alanine mutations, LexA fusion (NIAMLLAAAAYLE; also: LexA fusion; UniProt Q05195 8-20, looked up, variant Q10A E14A D17A)”, in the data set with PAH2 domain of mSin3A (yeast strain L40), the “affinity for PAH2 relative to wild-type SID 8-20” value is on record as “two-fold”.
In turn, “LexA fused to SID 8-20 D17A (from UniProt P0A7C2 1-202)” had a fold higher affinity than wild-type SID 8-20 (relative beta-galactosidase activity) in data set [2] of 2 fold.
Still for that read-out and setting: the value for “LexA fused to SID 8-20 E14A (from UniProt P0A7C2 1-202)” was 2 fold; that for “LexA fused to SID 8-20 Q10A (from UniProt P0A7C2 1-202)” was 2 fold.
In turn, “LexA fused to SID 8-20 Q10A/E14A/D17A (from UniProt P0A7C2 1-202)” registered a fold better binding than wild-type SID in data set [2] of 2 fold.
For the molecule “Tyr-18: minimal SID 8-20 with Tyr-18 mutated to aspartic acid, LexA fusion (NIQMLLEAADDLE; also: LexA fusion; UniProt Q05195 8-20, looked up, variant Y18D)”, the “interaction with PAH2 (relative β-galactosidase activity)” value with PAH2 domain of mSin3A is “severely impaired binding”.
In the case of “Q10A: minimal SID 8-20 with single mutation Q10A, LexA fusion (NIAMLLEAADYLE; also: LexA fusion; UniProt Q05195 8-20, looked up, variant Q10A)”, in the data set with PAH2 domain of mSin3A (yeast strain L40), the “affinity for PAH2 relative to wild-type SID 8-20” value is listed as “approximately 2 fold”.

B1: SID 1-57: LexA DNA binding domain fused to amino acids 1-57 of Mad1 (protein)
chain: MKALTARQQEVFDLIRDHISQTGMPPTRAEIAQRLGFRSPNAAEEHLKALARKGVIEIVSGASRGIRLLQEEEEGLPLVGRVAAGEPLLAQQHIEGHYQVDPSLFKPNADFLLRVSGMSMKDIGIMDGDLLAVHKTQDVRNGQVVVARIDDEVTVKRLKKQGNKVELLPENSEFKPIVVDLRQQSFTIEGLAVGVIRNGDWLMAAAVRMNIQMLLEAADYLERREREAEHGYASMLPYNNKDRDALKRRNKSKKNNSSS
B1: the “interaction with PAH2 (relative β-galactosidase activity)” value with PAH2 domain of mSin3A is reported as “sufficient for interaction”.

B2: NIQMLLEAADYLE (protein)
chain: MKALTARQQEVFDLIRDHISQTGMPPTRAEIAQRLGFRSPNAAEEHLKALARKGVIEIVSGASRGIRLLQEEEEGLPLVGRVAAGEPLLAQQHIEGHYQVDPSLFKPNADFLLRVSGMSMKDIGIMDGDLLAVHKTQDVRNGQVVVARIDDEVTVKRLKKQGNKVELLPENSEFKPIVVDLRQQSFTIEGLAVGVIRNGDWLNIQMLLEAADYLE
B2: the “interaction with PAH2 (relative β-galactosidase activity)” value in the data set with PAH2 domain of mSin3A is “necessary and sufficient for interaction”.
